From US20110300156A1 (Genmab, published 2011)

T1: murine tissue factor (TF) on transfected HEK293F cells (murine, UniProt P20352 29-294)
T1 construct: whole, on cells; also called murine TF; TFmm
T1 sequence (looked up): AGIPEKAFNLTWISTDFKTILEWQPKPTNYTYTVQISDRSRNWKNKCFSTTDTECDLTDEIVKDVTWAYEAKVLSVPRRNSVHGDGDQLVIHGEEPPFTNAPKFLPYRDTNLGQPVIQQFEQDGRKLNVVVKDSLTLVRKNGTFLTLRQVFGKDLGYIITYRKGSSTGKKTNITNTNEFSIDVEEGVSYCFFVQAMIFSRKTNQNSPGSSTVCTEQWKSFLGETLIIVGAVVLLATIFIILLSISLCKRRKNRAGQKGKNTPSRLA


Legend:
[1] = target: T2, human tissue factor (TF), membrane-bound on cells (human, UniProt P13726 33-295); test: FACS, A431 cells, 30 µg/mL
T2 construct: whole, on cells; also called cellular TF
How it was run: (§1)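 Binding curves came from non-linear sigmoidal variable-slope fits of flow cytometry signal. Serially diluted HuMab was applied for 30 minutes on ice in PBS buffer containing 0.1% BSA and 0.02% Na-azide, with PE anti-human IgGFc secondary added after washing, again 30 minutes on ice, dark.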

[2] = target: T2, human tissue factor (TF), …; test: FACS on AsPC-1 cells (~175.000 TF molecules/cell) [panel AsPC-1 cells]
Description: (§2) Cells were resuspended in PBS (2×10⁶ cells/ml), put in 96-well V-bottom plates (50 μl/well). 50 μl of serially diluted HuMab in FACS buffer (PBS supplemented with 0.1% BSA and 0.02% Na-azide) was added to the cells and incubated for 30 minutes on ice. After washing three times with FACS buffer, 50 μl of phycoerythrin (PE)-conjugated goat anti-human IgGFc (Jackson ImmunoResearch), diluted 1:100 in FACS buffer, was added. After 30 minutes on ice (in the dark), cells were washed three times, and specific binding of the HuMabs was detected by flow cytometry on a FACSCalibur (BD Biosciences). HuMab-KLH was used as a negative control. Mouse anti-TF followed by PE-conjugated anti-mouse IgGFc was used as positive control. Binding curves were analyzed using non-linear regression (sigmoidal dose-response with variable slope) using GraphPad Prism V4.03 software (GraphPad Software, San Diego, Calif., USA).
(§3) Binding of anti-TF HuMabs to membrane-bound TF on cell lines expressing different levels of TF was determined by FACS analysis, essentially as described supra. Mouse anti-TF antibody followed by PE-conjugated anti-mouse IgGFc was used as a positive control. Fluorescence was measured on a FACSCantoII. Binding curves were analyzed essentially as described supra, using GraphPad Prism 5 software. The amount of TF molecules on cell lines was determined by Qifi kit (Dako, Glostrup, Denmark), according to the manufacturer's instructions.

[3] = target: T3, TFECDHis (extracellular domain of tissue factor, amino acid 1-251, with C-terminal His tag) (human, UniProt P13726 33-251); test: competition ELISA, inhibition of FVIIa (100 nM) binding to coated TFECDHis
T3 construct: range 1-251; The stated range 1-251 starts at residue 1 of NP-001984; also called extracellular domain of TF
Description: ELISA plates were coated overnight with TFECDHis (0.5 μg/mL, 100 μL per well). Plates were emptied, blocked with PBS containing 2% (v/v) chicken serum (1 hour, RT), and emptied again. […] Plates were washed and incubated with swine-anti-rabbit IgG-HRP antibody (1:2,500; DAKO). After washing, the immune complexes were visualized using ABTS as a substrate.

[4] = target: T2, human tissue factor (TF), …; test: FACS, MDA-MB-231 cells
How it was run: as §1

[5] = target: T3, TFECDHis (extracellular domain of …); test: SPR avidity format: TFECDHis immobilized, bivalent HuMab as analyte (printed as avidity nM)
Description: Antibody binding to TF was analyzed by surface plasmon resonance in a BIAcore 3000 (GE Healthcare). TFECDHis was used for the analysis. HuMab antibodies (500 resonance units) were immobilized on the CM-5 sensor chip according to the procedure recommended by the manufacturer. Briefly, after surface activation by EDC and NHS HuMab antibody was injected over the activated CM-5 surface in 10 mM sodium-acetate, pH ranging from 4.0 to 5.5 at 5 μl/min. followed by 1 M Ethanolamine for deactivation. Concentration series of TFECDHis in HBS-EP buffer were injected over the immobilized antibodies at a flow rate of 30 μl/min for 180 sec. Regeneration of the HuMab surface was performed by injection of 10 mM Glycine-HCl pH 2.0 or 10 mM sodium acetate pH 3.0. Kinetic analysis was performed using double reference subtraction and model 1:1 (langmuir) binding analysis.
TF (TFECDHis) binding to TF-specific HuMabs was determined essentially as described above, with TFECDHis being immobilized on the CM-5 sensor chip (300 resonance units), and concentration series of Humab antibodies used for kinetic analysis. Kinetic analysis was performed using double reference subtraction and model 1:1 (langmuir) binding analysis.

[6] = target: T1, murine tissue factor (TF) on …; test: FACS on transfected HEK293F cells, 30 µg/mL antibody [panel M]
[7] = target: T2, human tissue factor (TF), …; test: cell-based or functional assay
[8] = target: T2, human tissue factor (TF), …; test: FACS on SK-OV-3 cells (~60.000 TF molecules/cell) [panel SK-OV-3 cells]
Description: as §2
as §3, with “Mouse anti-TF antibody followed by PE-conjugated anti-mouse IgGFc was used as a positive control.” left out

[9] = target: T1, murine tissue factor (TF) on …; test: FACS on transfected HEK293F cells, 30 µg/mL antibody [Figure 18; no figure label on the sheet]
Description: as §2
To determine domains important for binding of anti-TF HuMabs to human TF, DNA shuffling was performed between human and murine TF. Shuffle constructs were prepared from DNA encoding human TF, by replacing human domains with murine domains and from DNA encoding murine TF by replacing murine domains with human domains.

Max MFI [1] | EC50 (read off the curve) [2] [µg/mL] | max inhibition [3] [%] | EC50 [4] [nM] | Kd [5] [nM] | binding result [6] | EC50 of ADCC, Bx-PC3 cells [7] [nM] | EC50 of ADCC, MDA-MB-231 cells [7] [nM] | EC50 (read off the curve) [8] [µg/mL] | IC50 [3] [nM] | binding result [9] | Binder
3120 | ~0.1 | 90 | 2.16 | 0.01 | no binding (tested: 30 µg/mL) | 0.06 | 0.12 | ~0.04 | – | – | anti-TF HuMab 109 (antibody, V domains shown, Human monoclonal antibody from HuMab mice) VH: QVQLVESGGGVVQPGRSLRLSCPASGFTFSIYAMHWVRQAPGKGLEWVAVVSNDGYNKYYADSVKGRFTISRDNSKDTLYLQMNSLRAEDTAVYYCARDGQLGRGYFDYWGQGTLVTVSS VL: EIVLTQSPATLSLSPGERAILSCRASQSVSSYLAWYQQKPGQAPRLLIYDASNRATGIPARFSGSGSGTDFTLTISSLEPEDFAVYYCQQRSNWPLTFGGGTKVEIK
3620 | – | 27 | 1.58 | – | – | 0.07 | 0.06 | – | 19.3 | no binding (tested: 30 µg/mL) | anti-TF HuMab 013 (antibody, V domains shown, Human monoclonal antibody from HuMab mice; also called HuMab-TF-13) VH: EVQLVQSGAEVKKPGESLKISCKGSGYSFTSYWIGWVRQMPGKGLEWMGIIYPGDSDTRYSPSFQGQVTISADKSISTAYLQWSSLKASDTAMYYCARIHRGAGYSSSWPGAFDIWGQGTMVTVSS VL: DIQMTQSPSSLSASVGDRVTITCRASQGISRWLAWYQQKPEKAPKSLIYAASSLQSGVPSRFSGSGSGTDFTLTISSLQPEDFATYYCQQYDSDPITFGQGTRLEIK
